Assay results: US20160046725A1 (published 2016)
Where two headings read alike, the source gives them in different places.

Tests used:
Test in all cases: ELISA
[1] = target: T1, recombinant human Axl-Fc protein (R and D Systems, cat N° 154-AL) (UniProt P30530 26-451)
[2] = target: T1, recombinant human Axl-Fc protein (R and …); remark: listed apart in the source
[3] = target: T1, recombinant human Axl-Fc protein (R and …); remark: listed apart in the source

T1 sequence (P30530 26-451 D266N): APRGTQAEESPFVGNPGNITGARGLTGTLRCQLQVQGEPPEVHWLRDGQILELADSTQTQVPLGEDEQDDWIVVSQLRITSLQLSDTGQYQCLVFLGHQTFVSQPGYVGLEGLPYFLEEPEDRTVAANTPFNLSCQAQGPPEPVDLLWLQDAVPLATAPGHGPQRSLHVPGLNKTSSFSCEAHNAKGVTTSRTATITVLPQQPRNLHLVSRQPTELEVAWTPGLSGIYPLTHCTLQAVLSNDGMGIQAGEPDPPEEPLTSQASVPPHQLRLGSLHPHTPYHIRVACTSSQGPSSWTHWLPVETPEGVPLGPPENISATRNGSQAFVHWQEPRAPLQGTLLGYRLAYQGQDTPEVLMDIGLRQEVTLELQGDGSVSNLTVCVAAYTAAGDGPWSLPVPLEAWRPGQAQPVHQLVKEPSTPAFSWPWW

B1: 110D7 anti-Axl monoclonal antibody (antibody, V domains shown)
VH: EVKLVESGGGLVQPGGSLKLSCATSGFTFSDYYMYWVRQTPEKRLEWVAYISNGGGSTYYPDTVKGRFTMSRDNAKNTLYLQMSRLKSEDTAMYYCARLSFYAMDYWGQGTSVTVSS
VL: DIVMTQSHKFMSTSVGDRVSITCKASQDVTTAVAWYQQKPGQSPKLLIYWASTRHTGVPDRFTGSGSGTDYTLTISSVQAEDLALYYCQQHYRIPFTFGSGTKLEIK
[1]
  EC50: 1.35 nM

B2: 1024G11 anti-Axl monoclonal antibody (antibody, V domains shown)
VH: EVKLVESGGGLVQPGGSLNLSCAASGFTFSSYSMSWVRQTPEKRLEWVAFISNGGGRTYYPDTVKGRFTFSRDNARNTLYLQMSSLNSEDTAMYFCARGTTESYYAMDYWGQGTSVTVSS
VL: DIVMTQSHKFMSTSVGDRVSITCKASQDVITAVAWYQQKPGQSPKLLIYWASTRHTGVPDRFTGSGSGTDYTLTISSVQAEDLALYFCQQHLSTPLTFGAGTKLELK
[2]
  EC50: 3.57 nM

B3: 1003A2 anti-Axl monoclonal antibody (antibody, V domains shown)
VH: EVKLVESGGGLVQPGGSLKLSCAASGFTFNSYSMSWVRQTPEKRLEWVAYISNGGGRTYYPDTIKGRFTLSRDNDRNTLYLQMSSLKSEDTAMYYCARGTTESYYALDYWGQGTSVTVSS
VL: DIVMTQSHKFMSTSLGDRISITCKASQDVITAVAWYQQKPGQSPKLLIYWASTRHTGVPDRFTGSGSGTDYNLTISSVQAEDLALYYCQQHFSTPLTFGAGTKLELK
[3]
  EC50: 2.35 nM
